The text below walks through data of the DeepSol protein solubility set.

A short description of the series: soluble on expression in E. coli; label from the status in PepcDB or PDB records.
As to “ISEFGSTMARAIYDFFSTPFGNRGLATNRTQLSSLLSSSNSPWQRFLSSMTPLTAPGIVSTPEAPYPGSLMYQESMLHSATVPGVLGSRDAWRTFNVFGLSWTDEGLSGLVAAQDPPPAAPYQPASAQWSDLLNYPRWANRRRELQSKYPLLLRSTLLSAMRAGPVLYVETWPNMISGRLADWFMSQYGNNFVDMCARLTQSCSNMPVEPDGNYDQQMRALISLWLLSYIGVVNQTNTISGFYFSSKTRGQALDSWTLFYTTNTNRVQITQRHFAYVCARSPDWNVDKSWIAAANLTAIVMACRQPPVFANQGVINQAQNRPGFSMNGGTPVHELNLLTTAQECIRQWVMAGLVSAAKGQALTQEANDFSNLIQADLGQIKAQDDALYNQQPGYARRIKPFVNGDWTPGMTAQALAVLATFTA”, the “soluble on expression in E. coli” value is listed as “soluble”.
To “MSLILVYSTFPNEEKALEIGRKLLEKRLIACFNAFEIRSGYWWKGEIVQDKEWAAIFKTTEEKEKELYEELRKLHPYETPAIFTLKVENVLTEYMNWLRESVLEGGSHHHHHH” belongs “soluble”; to “MGSDKIHHHHHHMTTESIAVLVIDDDPAILQNIVCYLEDSDFICFGAADGAAGIETFERERPDAVIVDLNMPGMNGRDVIARINAQSPTTPVIVVSGTGVIDEAVESMRVGAWDFLSKPVRRMEELENAVRAGLRRARTMRESNEYKETLERMVKRRTRELQLANDRTEAILLATVQSLSTVINLKDAYTGTHQQRVALIAPAIAEELGMEQRAVEAVRLAALLHDVGKMGLPSEFLTKPSRLDANEMQFIRQHPQLGYDILKDIPFELPIPEMVLQHHERLDGSGYPRGLAGDDILPEARILAVADTVEAICSHRPWRPAHPFSHALHELTAGKNTLYCPDAVNSCIDLITRGDPRLTTFTATIKGLPS”, “not soluble”; to “MVDIPPPFDLACITKKPITKSSPSLLIESDSPDKYKKKKSSFKRFLALTFKKKTENKLHVDVNVSSSRSSSESSYHGPSRILEVDRRSLSNSPQLKSRTGKLRASESPSSLIFYRDGKRKGVPFSRTVSRVESFEDRSRPPFLPLPLTKPRSISFPSADTSDYENIPAMNSDYENIQIPPRRPARAGAFTKLFEDQSRALSTANENDGYVDMSSFNAFESKQQSADQDAESAYTEPYKVCPISSAAPKEDLTSDEEQRSSEEEDSASRDPSVTHKVEGQSRALVIAQELLSSEKAYVEMLQHLNLDFHGAVMRALDDMDHEGRDTLAREELRQGLSELPAIHDLHQGILEELEERLSNWESQQKVADVFLAREQGFDHHATHILQFDRYLGLLSENCLHSPRLAAAVREFEQSVQGGSQTAKHRLLRVVQRLFQYQVLLTDYLNNLCPDSAEYDNTQGALSLISKVTDRANDSMEQGENLQKLVHIEHSVRGQGDLLQPGREFLKEGTLMKVTGKNRRPRHLFLMNDVLLYTYPQKDGKYRLKNTLAVANMKVSRPVMEKVPYALKIETSESCLMLSASSCAERDEWYGCLSRALPEDYKAQALAAFHHSVEIRERLGVSLGERPPTLVPVTHVMMCMNCGCDFSLTLRRHHCHACGKIVCRNCSRNKYPLKYLKDRMAKVCDGCFGELKKRGRAVPGLMRERPVSMSFPLSSPRFSGSAFSSVFQSINPSTFKKQKKVPSALTEVAASGEGSAISGYLSRCKRGKRHWKELWFVIKGKVLYTYMASEDKVALESMPLLGFTIAPEKEEGSSEVGPIFHLYHKKTLFYSFKAEDTNSAQRWIEAMEDASVL”, “soluble”.
Next, “MGSDKIHHHHHHMLIIKLSAMGDSLCLFPTVRQLALAFPGATIDWLTSNRSNPALFAELPFIRTIFVTPPSLVRALTYLGGWLFRARRYDLTIDYDQYYCISELIAGMSACSAGFRTSLKGTTFSLSVEYDPLLNEKAMFRKLTERVFATYGVSIPDYRAELPELIERFVPSAQLQTLRARLKAQGKPIVGIYPGSGANATFRRWGVGNYVALIERYKDRYAFVLLGGPDERDLQADLKDIDGVFNLIDSMSFKEVAWFLKHTIDLLVGNDGGLLHVAESQAVATVGIFGPALYRKWGSSLERSIGVEKELPCRPCLKNYLGTVPSACCLGTTACLSAISTDDVAQAMHRAVHRIHVVPIAHA”: “not soluble”.
Next, “MAHHHHHHMGKPGKKAGKGLLAPTNPNRRTDPNKTSLRDQRTIKRLKMYKSKIKRDEKGNIIKGSVLKASDRIEQQMARIAPDRRWFGNTRTIGQEALQKFREEMGTKYKDPYSVIIKQSKLPLSLLEEPKNTDGSIRKEMEWDKTFGDKANRKRVRLNAVDMSTLATEANVKGDYYDCNKKEKDRDLMKGVHKDRDDKTRNGILMTKGQSNRIWCELYKVIDSSDVVLYVVDARDPMGTRSAFLEDFMRREKKYKHFVLVLNKCDLVPLWATARWLQILSKDYPTIAFHASVNHPFGKGNVISLLRQFARLHNVTHRGSKRTKTPISVGVIGYPNVGKSSLINTLRRKSVCKVAPIPGETKVWQYVALTRSIFLIDCPGVVYDRESNNDIQAVLKGVVRVERLGNADKTDVVDTVLKIVKQRDIVATYGVREWRDVVDFLEKLAKLRGKLVAGGEPDVEAAARMLLYDWQRGRLPWFNAPPFESNKHHRDAMEQPQEKHMKLIEHYSTFNVVDDTINRGDEKQDEGGDGDEETANNAADEDQLDSGSEAEKDEEAVKPLKPSKTDRLSATKADTQLATVATYMREQEEKQRKAQRQQKRKAARKGQEDVEAFSADADRESDDALWAQFLAAAKV”: “soluble”; “MGSDKIHHHHHHMTTSTGKINLLGLTQPEMEQFFDSIGEKRFRAGQVMKWIHHFGVSDFAAMTNVGKVLREKLEAVAEIRPPEVVSEDISADGTRKWVIRVASGSCVETVYIPTDDRGTLCVSSQAGCALDCSFCSTGKQGFNSNLTAAEVIGQVWLANKSFGTVPAKVDRAITNVVMMGMGEPLLNFDNVIAAMKIMMDDLGYGISKRRVTLSTSGVVPMIDELAKHIDVSLALSLHAPNDELRNKLVPINKKYPLKVLLESCMGYMSTLGGKRVLTVEYTLLKDVNDQPEHAAQMIELLRDVPCKINLIPFNPFPHSGYERPSNNAIRRFQDLLHHGGFNVTTRTTRGDDIDAACGQLVGQVNDRTRRSERYIAVRQLSADVELPDSAASH”: “not soluble”.
Take “SDDKAFTKELDQWVEQLNECKQLNENQVRTLCEKAKEILTKESNVQEVRCPVTVCGDVHGQFHDLMELFRIGGKSPDTNYLFMGDYVDRGYYSVETVTLLVALKVRYPERITILRGNHESRQITQVYGFYDECLRKYGNANVWKYFTDLFDYLPLTALVDGQIFCLHGGLSPSIDTLDHISPRGAGYTFGQDISETFNHANGLTLVSRAHQLVMEGYNWCHDRNVVTIFSAPNYCYRCGNQAAIMELDDTLKYSFLQFDPAPRRGEPHVTRRTPDYFL”: the “soluble on expression in E. coli” value is recorded as “soluble”.
For “MTDVLPTIELFDGIAEELDNVSLRRDRQSGTRNVLLRFRALKALDRFNSFRSRFSKAIRLTDSEGAIELWPDSSKLVFGGDDGDELDRVEFVVPIDNEDHWQRFMRFMERYAAANDMTYGDRQALEHHHHHH”, the “soluble on expression in E. coli” value is listed as “soluble”.
In the case of “MEKQYRVLLYYKYVPIEDPEAFREQHLAFCKELGLLGRILVSSEGINGTVSGTVEQTEKYMETMKADPRFADMVFKIDEAEGHAFKKIFVRHKKELVTLRLEDDVDPNETTGQHLKPAEFYEKMQDPNTIVIDARNDYEYDLGHFRGAVRPDIEAFRELPEWIEEHKDMLEGKKILTYCTGGVRCEKFSGWLVKQGFEDVAQLDGGIVTYGKDPEVQGKLWDGQCYVFDERISVPVNRVEHVIVGKDYFTGEPCERYVNCANPSCNKKMICTPENEYKYMRSCSHECRTNPRNLYVKEHNMTEEEVNARLAAIETEDHAAAELEHHHHHH”, the “soluble on expression in E. coli” value was “soluble”.
Regarding “MAHHHHHHMSAGDTPVSLFLQACNQEGVKTPNPKLVEFFQSHETFDSILEIDLSNNYIGNRGLLAVLGVIEHLSCFRCLNAMDQKLYNSDFSEEAVKGNAVIDRIVEVFKVHPTANSLNLSNNPISNYAGRKLLSLAQVNRRMCLIEVSDTRIDFDLRNKIAKQCEENTRNMWDAEQDENANSCAVFGENLEWVPTQATADLTSLGAGRARRQTVRVEGIDPEAAKNYVPPVHEKSQEDTDMICKLLSHNVLFGFLGSKDILTVAGAMYREEFVKDERIIEFGQTHCDKLYVIQSGEADVIKEGQKVFVKTEGTAVGELELLYDTPAVATVKVSTEVLVAWVLDRETYRNLVMGSCIRRRETYMSMLAKVPFLQSLDAYERMQIADALTSDEFAAGDYIIHYDEEGEWLYIIIEGTVEVIGRDAAGNKTKVCEFHSGDHIGELEFLNKHRTVADIVAVTGVTTAKLNRRHFEMCMGPVMDVLKRNSTSAKYDYYQQVLQQQQQGAPAAVQ”, the “soluble on expression in E. coli” value was “soluble”.
Consider “PKGSIIVSTRAPVGYVAIVDEDTTFNQGCKGLIPKSSEINTEFYCYYLLLIKRKLEQLSGGSTFKELPKKSLEELLIPLLPLPEQQKIAEILSTV”, for which the “soluble on expression in E. coli” value is on record as “soluble”.
